Publication PMC4589512 (Nature cell biology, 2015)

Biological target: CGG-CC1 (human, UniProt Q13586 233-343)
Experiment: SPR

Sequence of CGG-CC1 (Q13586 233-343): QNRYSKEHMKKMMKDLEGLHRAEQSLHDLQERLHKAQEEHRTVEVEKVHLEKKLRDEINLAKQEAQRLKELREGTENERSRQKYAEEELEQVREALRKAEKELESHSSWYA

B1: STIMATE-CT (analyte of the SPR) (domain or fragment)
chain: DNFLMRKGKTKAKLEERGANQDSRNGSKVRYRRAASHEESESEILISADDEMEESDVEEDLRRLTPLKPVKKKKHRFGLPV
Question: For B1, which Kd is on record?
Answer: Its Kd is 8.9 ± 0.7 µM.
